Measurements taken from patent publication US20220193133A1 (CENTURY THERAPEUTICS, published 2022).
One block for each binder: values may come before it.

Tests used:
[1] = molecular target: T1, D04 protein (humanized D04 VHH as ELISA antigen); assay: periplasmic extract ELISA, absorbance 450 nm, single point
T1 construct: Panning used biotinylated D04-Fc; the ELISA legend says only 'D04 protein'

[2] = molecular target: T2, humanized D04 VHH CAR (hyLYSO_CW_P01_D04) on Nurkat cells or primary T cells; assay: flow cytometry, VHH-Fc on CAR Nurkat cells, 3-fold dilutions 50 to 0.02 nM, anti-Fc APC, %Fc positive cells
T2 construct: also called D04 (p1648); P1650
Description: (§1) […] Fc-fusion protein was detected via anti-Fc APC, and the percentage of cells that were positive for this detection method are shown. […] Controls include (i) no VHH-Fc added and (ii) the anti-VHH cocktail detection reagent (far right). The samples shown in the graphs for each protein appear in the order as specified in the legend.

[3] = molecular target: T3, humanized B11 VHH CAR (hyLYSO_CW_P01_B11) on Nurkat cells; assay: as above
T3 construct: also called B11 (p1649); P1649
Description: as §1

[4] = molecular target: T4, D04-his tagged VHH (humanized D04); assay: Octet (BLI), anti-idiotype VHH-Fc vs his-tagged VHH; table title prints B11-his, paragraph 353 ties these values to D04
T4 construct: also called LysoD04.His; D04 his-tagged protein

[5] = molecular target: T5, B11-his tagged VHH (humanized B11); assay: Octet (BLI), anti-idiotype VHH-Fc vs his-tagged VHH; table title prints D04-his, its footnote prints B11-his
T5 construct: also called B11-his protein; B11 his-tagged protein

[6] = molecular target: T6, B11 protein (humanized B11 VHH as ELISA antigen); assay: periplasmic extract ELISA, absorbance 450 nm, single point
T6 construct: Panning used B11-Fc; the ELISA legend says only 'B11 protein'

[7] = molecular target: T7, chicken lysozyme (Hen Egg Lysozyme) (chicken, UniProt P00698 19-147, biotinylated); assay: flow cytometry, CAR Jurkat cells + 10 ug/mL biotinylated lysozyme, streptavidin-APC, % positive cells
T7 construct: also called HEL; chicken egg white lysozyme
T7 sequence (P00698 19-147): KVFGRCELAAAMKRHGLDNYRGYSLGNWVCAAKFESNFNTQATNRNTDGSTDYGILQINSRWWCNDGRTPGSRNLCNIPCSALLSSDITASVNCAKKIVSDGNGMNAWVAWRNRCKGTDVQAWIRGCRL

human lysozyme = molecular target: T8, human lysozyme (human, UniProt P61626 19-148, biotinylated); assay: as above
T8 construct: also called human lysozyme protein
T8 sequence (looked up): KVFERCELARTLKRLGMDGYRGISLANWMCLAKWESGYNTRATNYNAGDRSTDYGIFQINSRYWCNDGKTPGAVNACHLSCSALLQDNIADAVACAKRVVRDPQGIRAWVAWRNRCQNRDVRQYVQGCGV

B1: huD04_CNTY2_F04 anti-idiotype VHH (periplasmic extract) (VHH)
VHH: EVQLLESGGGLVQPGGSLRLSCAASGRTFSSYGMGWYRQAPGKERELVSAISNRGSTYYADSVKGRFTISRDNSKNTLYLQMNSLRAEDTAVYYCAASPARVGVSGHSSSRRSYYGYSYDYWGQGTQVTVSS
notes: Screened as periplasmic extract; also called VHH of AMD70
binding result [1]: binds

B2: AMD70 (Fc fusion)
VHH-Fc: EVQLLESGGGLVQPGGSLRLSCAASGRTFSSYGMGWYRQAPGKERELVSAISNRGSTYYADSVKGRFTISRDNSKNTLYLQMNSLRAEDTAVYYCAASPARVGVSGHSSSRRSYYGYSYDYWGQGTQVTVSS
notes: also called huD04_CNTY2_F04 anti-idiotype VHH IgG1-Fc fusion
binding result [2]: binds

B5: AMD75 (Fc fusion)
VHH-Fc: EVQLLESGGGLVQPGGSLRLSCAASGFAFSDYVMGWYRQAPGKEREFVSAIRSTTSTYYADSVKGRFTISRDNSKNTLYLQMNSLRAEDTAVYYCAADVWSGYEYDYWGQGTQVTVSS
notes: also called huB11_CNTY1_E11 anti-idiotype VHH IgG1-Fc fusion
binding result [2]: no binding (tested: 50 nM)

B7: huD04_CNTY2_F12 anti-idiotype VHH (periplasmic extract) (VHH)
VHH: EVQLLESGGGLVQPGGSLRLSCAASGFTFSSNAMGWYRQAPGKEREFVSSISSGRSTTYADSVKGRFTISRDNSKNTLYLQMNSLRAEDTAVYYCAAHGTKYKWTRARLRSARQKQLETYRYWGQGTQVTVSS
notes: Screened as periplasmic extract; also called VHH of AMD74
binding result [1]: binds

B8: AMD74 (huD04_CNTY2_F12 anti-idiotype VHH IgG1-Fc fusion) (Fc fusion)
chain: EVQLLESGGGLVQPGGSLRLSCAASGFTFSSNAMGWYRQAPGKEREFVSSISSGRSTTYADSVKGRFTISRDNSKNTLYLQMNSLRAEDTAVYYCAAHGTKYKWTRARLRSARQKQLETYRYWGQGTQVTVSS
notes: not shown: IgG1 Fc
binding result [2]: binds

B10: huD04_CNTY2_E03 anti-idiotype VHH (periplasmic extract) (VHH)
VHH: EVQLLESGGGLVQPGGSLRLSCAASGLTYTGYAMGWYRQAPGKERELVSAISSRSSIYYADSVKGRFTISRDNSKNTLYLQMNSLRAEDTAVYYCAAGRPVALGSWRRTATWSAGLGAEYAYWGQGTQVTVSS
notes: Screened as periplasmic extract; also called VHH of AMD69
binding result [6]: no binding

B11: huD04_CNTY2_D12 anti-idiotype VHH (periplasmic extract) (VHH)
VHH: EVQLLESGGGLVQPGGSLRLSCAASGSAFSSNAMGWYRQAPGKERELVSAISSGGSTNYADSVKGRFTISRDNSKNTLYLQMNSLRAEDTAVYYCAARNPLTYTALVSNAPSGDYYLFEYRLWGQGTQVTVSS
notes: Screened as periplasmic extract; also called VHH of AMD85
binding result [6]: no binding | binding result [1]: binds

B12: LYSO_CW_P01_B11 VHH CAR (camelid B11) on Jurkat cells (other, not shown: small tags and cut ends)
chain: QVQLVESGGGLVQAGGSLRLSCAASGGIFSGGRMGWFRQAPGKEREFVAAVITRGGSTYYADSVKGRFTISRDNAKNTVYLQMNSLKPEDTAVYYCAASEVTYDEGRYIGTKSTYDTWGQGTQVTVSS
notes: camelid (not humanized) VHH; also called B11(p242)
binding result [7]: binds | binding result (human lysozyme): no binding (tested: 10 ug/mL)

B14: huD04_CNTY2_C03 anti-idiotype VHH (periplasmic extract) (VHH)
VHH: EVQLLESGGGLVQPGGSLRLSCAASGLTFSRYAMGWYRQAPGKERELVSAISSRRSTYYADSVKGRFTISRDNSKNTLYLQMNSLRAEDTAVYYCAADYRLTSLERARYASASITYDYWGQGTQVTVSS
notes: Screened as periplasmic extract; also called VHH of AMD78
binding result [6]: no binding

B17: huD04_CNTY2_D02 anti-idiotype VHH (periplasmic extract) (VHH)
VHH: EVQLLESGGGLVQPGGSLRLSCAASGFTFRSYAMGWYRQAPGKEREGVSVISSGGTPSYADSVKGRFTISRDNSKNTLYLQMNSLRAEDTAVYYCDAIMGLVEADYVSTGTYEYTAYAYWGQGTQVTVSS
notes: Screened as periplasmic extract; also called VHH of AMD80
binding result [6]: no binding | binding result [1]: binds

B18: huD04_CNTY2_H12 anti-idiotype VHH (periplasmic extract) (VHH)
VHH: EVQLLESGGGLVQPGGSLRLSCAASGSIFSSDVMGWYRQAPGKERELVSAISSGGSTRYADSVKGRFTISRDNSKNTLYLQMNSLRAEDTAVYYCAATMGKSKTNRRNYGTWRYGAYAYWGQGTQVTVSS
notes: Screened as periplasmic extract; also called VHH of ABD72 (AMD72)
binding result [1]: binds

B19: AMD72 (huD04_CNTY2_H12 anti-idiotype VHH IgG1-Fc fusion) (Fc fusion)
chain: EVQLLESGGGLVQPGGSLRLSCAASGSIFSSDVMGWYRQAPGKERELVSAISSGGSTRYADSVKGRFTISRDNSKNTLYLQMNSLRAEDTAVYYCAATMGKSKTNRRNYGTWRYGAYAYWGQGTQVTVSS
notes: also called ABD72; not shown: IgG1 Fc
binding result [2]: binds

B20: huD04_CNTY2_D04 anti-idiotype VHH (periplasmic extract) (VHH)
VHH: EVQLLESGGGLVQPGGSLRLSCAASGLTFSGVCMGWFRQAPGKEREGVSAIYSSGSTYYADSVKGRFTISRDNSKNTLYLQMNSLRAEDTAVYYCAADRIPDLGEPCIGTTNLARTYNYWGQGTQVTVSS
notes: Screened as periplasmic extract; also called VHH of AMD81
binding result [6]: no binding

B22: huD04_CNTY2_B06 anti-idiotype VHH (periplasmic extract) (VHH)
VHH: EVQLLESGGGLVQPGGSLRLSCAASGFTFNRYSMGWYRQAPGKERELVSAISSGGSGYYADSVKGRFTISRDNSKNTLYLQMNSLRAEDTAVYYCAIQDYSRIWEYIALDRRRSYYGMDYWGQGTQVTVSS
notes: Screened as periplasmic extract; also called VHH of AMD79
binding result [6]: no binding

The remaining lines, values ahead:

binding result [3]: no binding (tested: 50 nM) | EC50 (read off the curve) [2]: ~6 nM | Kd [4]: 125 nM | Response [4]: 0.172 | koff [4]: 0.0868 s⁻¹ | kon [4]: 697000 M⁻¹ s⁻¹ | Response [5]: -0.0225
B3: AMD82 (huD04_CNTY1_B12 anti-idiotype VHH IgG1-Fc fusion) (Fc fusion)
chain: EVQLLESGGGLVQPGGSLRLSCAASGRTSSNYVMGWYRQAPGKEREGVSAITSGGSTYYADSVKGRFTISRDNSKNTLYLQMNSLRAEDTAVYYCAANLYSRTGAYDYWGQGTQVTVSS
notes: not shown: IgG1 Fc

binding result [2]: no binding (tested: 50 nM) | Kd [5]: 515 nM | Response [5]: 0.0566 | koff [5]: 0.14 s⁻¹ | kon [5]: 273000 M⁻¹ s⁻¹
B4: AMD71 (huB11_CNTY3+4_A02 anti-idiotype VHH IgG1-Fc fusion) (Fc fusion)
chain: EVQLLESGGGLVQPGGSLRLSCAASGRTYTGSAMGWYRQAPGKERELVSAISTGGETYYADSVKGRFTISRDNSKNTLYLQMNSLRAEDTAVYYCAAGYVGLPYTYRPATSRRGYTYWGQGTQVTVSS
notes: not shown: IgG1 Fc

binding result [2]: no binding (tested: 50 nM)
B6: AMD76 (Fc fusion)
VHH-Fc: EVQLLESGGGLVQPGGSLRLSCAASGLAFSSYAMGWYRQAPGKEREFVSVISGTGETLYADSVKGRFTISRDNSKNTLYLQMNSLRAEDTAVYYCAADVWSGYEYDYWGQGTQVTVSS
notes: also called huB11_CNTY1_B11 anti-idiotype VHH IgG1-Fc fusion

binding result [3]: no binding (tested: 50 nM) | EC50 (read off the curve) [2]: ~4 nM
B9: AMD69 (huD04_CNTY2_E03 anti-idiotype VHH IgG1-Fc fusion) (Fc fusion)
chain: EVQLLESGGGLVQPGGSLRLSCAASGLTYTGYAMGWYRQAPGKERELVSAISSRSSIYYADSVKGRFTISRDNSKNTLYLQMNSLRAEDTAVYYCAAGRPVALGSWRRTATWSAGLGAEYAYWGQGTQVTVSS
notes: not shown: IgG1 Fc

binding result (human lysozyme): no binding (tested: 10 ug/mL)
B13: p245 (other)
CAR: QVQLVESGGGLVQAGGSLRLSCAASGGIFSGGRMGWFRQAPGKEREFVAAVITRGGSTYYADSVKGRFTISRDNAKNTVYLQMNSLKPEDTAVYYCAASEVTYDEGHYIGTKSTYDTWGQGTQVTVSS

binding result [2]: no binding (tested: 50 nM)
B15: AMD73 (Fc fusion)
VHH-Fc: EVQLLESGGGLVQPGGSLRLSCAASGFTFSSYSIGWYRQAPGKERELVSVISSGGSTYYADSVKGRFTISRDNSKNTLYLQMNSLRAEDTAVYYCAASDWSYSWITYTGTWRLYEYWGQGTQVTVSS
notes: also called huB11_CNTY3+4_A01 anti-idiotype VHH IgG1-Fc fusion

binding result [3]: no binding (tested: 50 nM) | Response [5]: -0.0301
B16: AMD87 (huD04_CNTY1_D11 anti-idiotype VHH IgG1-Fc fusion) (Fc fusion)
chain: EVQLLESGGGLVQPGGSLRLSCAASGSTFSYYYMGWYRQAPGKERELVSAISSGGSIYYADSVKGRFTISRDNSKNTLYLQMNSLRAEDTAVYYCARRTYYGDEADYWGQGTQVTVSS
notes: not shown: IgG1 Fc

binding result [3]: no binding (tested: 50 nM)
B21: AMD81 (Fc fusion)
VHH-Fc: EVQLLESGGGLVQPGGSLRLSCAASGLTFSGVCMGWFRQAPGKEREGVSAIYSSGSTYYADSVKGRFTISRDNSKNTLYLQMNSLRAEDTAVYYCAADRIPDLGEPCIGTTNLARTYNYWGQGTQVTVSS
notes: also called huD04_CNTY2_D04 anti-idiotype VHH IgG1-Fc fusion

binding result [3]: no binding (tested: 50 nM)
B23: AMD79 (Fc fusion)
VHH-Fc: EVQLLESGGGLVQPGGSLRLSCAASGFTFNRYSMGWYRQAPGKERELVSAISSGGSGYYADSVKGRFTISRDNSKNTLYLQMNSLRAEDTAVYYCAIQDYSRIWEYIALDRRRSYYGMDYWGQGTQVTVSS
notes: also called huD04_CNTY2_B06 anti-idiotype VHH IgG1-Fc fusion

binding result [3]: no binding (tested: 50 nM)
B24: AMD67 (Fc fusion)
VHH-Fc: EVQLLESGGGLVQPGGSLRLSCAASGRTFSSGAMGWYRQAPGKERELVSAISNRGSTVYADSVKGRFTISRDNSKNTLYLQMNSLRAEDTAVYYCAADRNPSSAGAGVAAYRLIARFNYWGQGTQVTVSS
notes: also called huD04_CNTY2_F09 anti-idiotype VHH IgG1-Fc fusion
